Laboratory results: patent publication US20190298769A1

Target: 4-1BB receptor on Jurkat cells that over express 4-1BB/NFκB/Luc (UniProt Q07011)
Test: cell-based or functional assay

Chain of UniProt Q07011 (Q07011 24-255 limits assumed): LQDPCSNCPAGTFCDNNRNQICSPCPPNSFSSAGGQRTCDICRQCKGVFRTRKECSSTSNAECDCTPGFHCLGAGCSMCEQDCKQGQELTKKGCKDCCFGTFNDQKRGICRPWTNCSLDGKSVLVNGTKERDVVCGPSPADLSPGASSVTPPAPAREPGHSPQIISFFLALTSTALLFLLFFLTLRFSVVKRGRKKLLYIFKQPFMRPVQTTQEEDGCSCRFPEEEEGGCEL

“4-1BBL construct (human extracellular 4-1BBL - 4-1BBL linker - GPA) on the surface of engineered erythroid cells (ligand)” showed an NFκB activation (luciferase activity of Jurkat cells that over express 4-1BB/NFκB/Luc) of 80 to 100 fold and an NFκB activation relative to the agonistic 4-1BB monoclonal antibody of 15 fold.
